T1: TIAM2, Q8IVF5
T1 sequence (Q8IVF5 885-986, limits assumed, looked up): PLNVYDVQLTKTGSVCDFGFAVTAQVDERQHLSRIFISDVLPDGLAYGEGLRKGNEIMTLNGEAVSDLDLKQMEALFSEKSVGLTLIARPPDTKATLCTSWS

T2: GRIP1_2, Q9Y3R0
T2 sequence (Q9Y3R0 145-248, limits assumed, looked up): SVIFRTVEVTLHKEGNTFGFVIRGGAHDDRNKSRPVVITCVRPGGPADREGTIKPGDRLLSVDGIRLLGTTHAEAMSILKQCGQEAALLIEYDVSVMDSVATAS

T3: RHPN1, Q8TCX5
T3 sequence (Q8TCX5 508-602, limits assumed, looked up): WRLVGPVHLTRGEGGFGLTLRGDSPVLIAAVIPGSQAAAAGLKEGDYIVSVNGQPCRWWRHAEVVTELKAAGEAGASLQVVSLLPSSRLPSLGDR

T4: APBA1_1, Q02410
T4 sequence (Q02410 651-752, limits assumed, looked up): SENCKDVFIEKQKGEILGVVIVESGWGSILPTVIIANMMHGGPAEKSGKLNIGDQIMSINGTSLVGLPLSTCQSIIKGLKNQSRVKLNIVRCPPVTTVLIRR

T5: MPDZ_5, O75970
T5 sequence (O75970 695-796, limits assumed, looked up): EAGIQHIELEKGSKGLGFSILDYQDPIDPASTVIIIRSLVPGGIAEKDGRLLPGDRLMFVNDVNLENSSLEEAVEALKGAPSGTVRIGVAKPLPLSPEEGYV

T6: MPDZ_12, O75970
T6 sequence (O75970 1857-1958, limits assumed, looked up): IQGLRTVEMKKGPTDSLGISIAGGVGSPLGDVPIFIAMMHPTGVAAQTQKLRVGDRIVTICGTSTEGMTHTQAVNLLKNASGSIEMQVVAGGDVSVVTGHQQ

T7: PTPN13_1, Q12923
T7 sequence (Q12923 1088-1188, limits assumed, looked up): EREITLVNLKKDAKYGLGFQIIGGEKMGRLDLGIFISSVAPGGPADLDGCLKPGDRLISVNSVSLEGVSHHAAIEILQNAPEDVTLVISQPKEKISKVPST

T8: RAPGEF6, Q8TEU7
T8 sequence (Q8TEU7 525-625, limits assumed, looked up): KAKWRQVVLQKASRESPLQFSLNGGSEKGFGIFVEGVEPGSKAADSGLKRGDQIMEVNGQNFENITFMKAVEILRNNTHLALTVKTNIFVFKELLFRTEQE

T9: LNX2_3, Q8N448
T9 sequence (Q8N448 463-564, limits assumed, looked up): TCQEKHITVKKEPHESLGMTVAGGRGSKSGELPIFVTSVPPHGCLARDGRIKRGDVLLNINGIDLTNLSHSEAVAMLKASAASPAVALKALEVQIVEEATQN

T10: PDZD2_2, O15018
T10 sequence (O15018 329-429, limits assumed, looked up): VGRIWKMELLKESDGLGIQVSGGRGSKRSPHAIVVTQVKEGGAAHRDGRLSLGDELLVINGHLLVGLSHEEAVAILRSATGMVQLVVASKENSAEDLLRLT

B1: PTH1R, Q03431 (peptide)
chain: LLQEEWETVM

target: T1, TIAM2, Q8IVF5; assay: holdup assay; parameters: key: below the threshold = too weak to quantify, mostly under pKd 3.1 to 4; details: plain residues with an end cap or a label only (N-terminal biotin on a linker: ado-ado)

pKd	Binder
below the threshold	B1

target: T2, GRIP1_2, Q9Y3R0; assay: holdup assay; parameters: key: below the threshold = too weak to quantify, mostly under pKd 3.1 to 4; details: plain residues with an end cap or a label only (N-terminal biotin on a linker: ado-ado)

pKd	Binder
3.63	B1

target: T3, RHPN1, Q8TCX5; assay: holdup assay; parameters: key: below the threshold = too weak to quantify, mostly under pKd 3.1 to 4; details: plain residues with an end cap or a label only (N-terminal biotin on a linker: ado-ado)

pKd	Binder
4.41	B1

target: DLG1_1, Q12959; assay: holdup assay; parameters: key: below the threshold = too weak to quantify, mostly under pKd 3.1 to 4; details: plain residues with an end cap or a label only (N-terminal biotin on a linker: ado-ado)

pKd	Binder
below the threshold	B1

target: FRMPD2_1, Q68DX3; assay: holdup assay; parameters: key: below the threshold = too weak to quantify, mostly under pKd 3.1 to 4; details: plain residues with an end cap or a label only (N-terminal biotin on a linker: ado-ado)
Sequence (Q68DX3 770-861): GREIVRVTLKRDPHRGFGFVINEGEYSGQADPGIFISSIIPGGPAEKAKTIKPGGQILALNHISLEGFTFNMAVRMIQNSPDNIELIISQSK

pKd	Binder
below the threshold	B1

target: T4, APBA1_1, Q02410; assay: holdup assay; parameters: key: below the threshold = too weak to quantify, mostly under pKd 3.1 to 4; details: plain residues with an end cap or a label only (N-terminal biotin on a linker: ado-ado)

pKd	Binder
below the threshold	B1

target: LAP2, Q96RT1; assay: holdup assay; parameters: key: below the threshold = too weak to quantify, mostly under pKd 3.1 to 4; details: plain residues with an end cap or a label only (N-terminal biotin on a linker: ado-ado)
Sequence (Q96RT1 other isoform, or with tags, fused parts or gaps): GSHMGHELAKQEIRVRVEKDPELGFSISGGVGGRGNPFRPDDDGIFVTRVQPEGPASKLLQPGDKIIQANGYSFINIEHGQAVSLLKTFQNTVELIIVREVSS

pKd	Binder
below the threshold	B1

target: LNX1_2, Q8TBB1; assay: holdup assay; parameters: key: below the threshold = too weak to quantify, mostly under pKd 3.1 to 4; details: plain residues with an end cap or a label only (N-terminal biotin on a linker: ado-ado)
Sequence (Q8TBB1 371-470): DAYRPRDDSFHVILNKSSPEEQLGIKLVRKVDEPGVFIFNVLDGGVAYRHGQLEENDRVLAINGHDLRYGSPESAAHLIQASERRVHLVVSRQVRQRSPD

pKd	Binder
below the threshold	B1

target: T5, MPDZ_5, O75970; assay: holdup assay; parameters: key: below the threshold = too weak to quantify, mostly under pKd 3.1 to 4; details: plain residues with an end cap or a label only (N-terminal biotin on a linker: ado-ado)

pKd	Binder
below the threshold	B1

target: MAGI2_2, Q86UL8; assay: holdup assay; parameters: key: below the threshold = too weak to quantify, mostly under pKd 3.1 to 4; details: plain residues with an end cap or a label only (N-terminal biotin on a linker: ado-ado)
Sequence (Q86UL8 410-522): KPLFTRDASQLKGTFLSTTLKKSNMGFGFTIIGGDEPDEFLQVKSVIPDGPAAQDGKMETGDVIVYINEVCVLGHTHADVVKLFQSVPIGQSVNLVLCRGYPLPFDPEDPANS

pKd	Binder
below the threshold	B1

target: PARD3_3, Q8TEW0; assay: holdup assay; parameters: key: below the threshold = too weak to quantify, mostly under pKd 3.1 to 4; details: plain residues with an end cap or a label only (N-terminal biotin on a linker: ado-ado)
Sequence (Q8TEW0 582-685): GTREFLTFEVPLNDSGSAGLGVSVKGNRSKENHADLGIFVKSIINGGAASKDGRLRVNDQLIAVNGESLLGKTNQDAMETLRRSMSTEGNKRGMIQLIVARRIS

pKd	Binder
4.33	B1

target: T6, MPDZ_12, O75970; assay: holdup assay; parameters: key: below the threshold = too weak to quantify, mostly under pKd 3.1 to 4; details: plain residues with an end cap or a label only (N-terminal biotin on a linker: ado-ado)

pKd	Binder
below the threshold	B1

target: DLG4_3, P78352; assay: holdup assay; parameters: key: below the threshold = too weak to quantify, mostly under pKd 3.1 to 4; details: plain residues with an end cap or a label only (N-terminal biotin on a linker: ado-ado)
Sequence (P78352 306-403): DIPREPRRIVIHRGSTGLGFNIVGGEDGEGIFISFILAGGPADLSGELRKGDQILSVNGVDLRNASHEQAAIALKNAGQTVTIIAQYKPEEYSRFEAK

pKd	Binder
below the threshold	B1

target: T7, PTPN13_1, Q12923; assay: holdup assay; parameters: key: below the threshold = too weak to quantify, mostly under pKd 3.1 to 4; details: plain residues with an end cap or a label only (N-terminal biotin on a linker: ado-ado)

pKd	Binder
below the threshold	B1

target: T8, RAPGEF6, Q8TEU7; assay: holdup assay; parameters: key: below the threshold = too weak to quantify, mostly under pKd 3.1 to 4; details: plain residues with an end cap or a label only (N-terminal biotin on a linker: ado-ado)

pKd	Binder
below the threshold	B1

target: T9, LNX2_3, Q8N448; assay: holdup assay; parameters: key: below the threshold = too weak to quantify, mostly under pKd 3.1 to 4; details: plain residues with an end cap or a label only (N-terminal biotin on a linker: ado-ado)

pKd	Binder
below the threshold	B1

target: SNX27, Q96L92; assay: holdup assay; parameters: key: below the threshold = too weak to quantify, mostly under pKd 3.1 to 4; details: plain residues with an end cap or a label only (N-terminal biotin on a linker: ado-ado)

pKd	Binder
5.65	B1

target: DLG4_1, P78352; assay: holdup assay; parameters: key: below the threshold = too weak to quantify, mostly under pKd 3.1 to 4; details: plain residues with an end cap or a label only (N-terminal biotin on a linker: ado-ado)
Sequence (P78352 62-152): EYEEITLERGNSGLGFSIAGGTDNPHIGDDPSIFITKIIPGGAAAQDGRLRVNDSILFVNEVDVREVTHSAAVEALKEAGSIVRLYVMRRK

pKd	Binder
below the threshold	B1

target: GRIP2_3, Q9C0E4; assay: holdup assay; parameters: key: below the threshold = too weak to quantify, mostly under pKd 3.1 to 4; details: plain residues with an end cap or a label only (N-terminal biotin on a linker: ado-ado)
Sequence (Q9C0E4 238-339): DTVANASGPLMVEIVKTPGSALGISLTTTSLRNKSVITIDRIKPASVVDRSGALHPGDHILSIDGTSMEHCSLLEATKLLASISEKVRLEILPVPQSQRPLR

pKd	Binder
below the threshold	B1

target: DLG2_3, Q15700; assay: holdup assay; parameters: key: below the threshold = too weak to quantify, mostly under pKd 3.1 to 4; details: plain residues with an end cap or a label only (N-terminal biotin on a linker: ado-ado)

pKd	Binder
below the threshold	B1

target: Inadl_1, Q8NI35; assay: holdup assay; parameters: key: below the threshold = too weak to quantify, mostly under pKd 3.1 to 4; details: plain residues with an end cap or a label only (N-terminal biotin on a linker: ado-ado)
Sequence (Q8NI35 113-229): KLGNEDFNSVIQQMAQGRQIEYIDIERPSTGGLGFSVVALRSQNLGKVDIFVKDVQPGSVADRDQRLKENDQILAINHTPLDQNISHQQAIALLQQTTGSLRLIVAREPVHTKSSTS

pKd	Binder
below the threshold	B1

target: FRMPD3, Q5JV73; assay: holdup assay; parameters: key: below the threshold = too weak to quantify, mostly under pKd 3.1 to 4; details: plain residues with an end cap or a label only (N-terminal biotin on a linker: ado-ado)
Sequence (Q5JV73 12-100): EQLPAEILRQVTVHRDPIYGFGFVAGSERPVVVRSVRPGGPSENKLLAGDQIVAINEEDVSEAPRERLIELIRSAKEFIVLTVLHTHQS

pKd	Binder
below the threshold	B1

target: T10, PDZD2_2, O15018; assay: holdup assay; parameters: key: below the threshold = too weak to quantify, mostly under pKd 3.1 to 4; details: plain residues with an end cap or a label only (N-terminal biotin on a linker: ado-ado)

pKd	Binder
below the threshold	B1

target: GRIP2_7, Q9C0E4; assay: holdup assay; parameters: key: below the threshold = too weak to quantify, mostly under pKd 3.1 to 4; details: plain residues with an end cap or a label only (N-terminal biotin on a linker: ado-ado)
Sequence (Q9C0E4 934-1023): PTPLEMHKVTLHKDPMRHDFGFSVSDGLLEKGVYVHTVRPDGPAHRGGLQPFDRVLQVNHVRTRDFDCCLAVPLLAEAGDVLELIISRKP

pKd	Binder
below the threshold	B1

target: HTRA2, O43464; assay: holdup assay; parameters: key: below the threshold = too weak to quantify, mostly under pKd 3.1 to 4; details: plain residues with an end cap or a label only (N-terminal biotin on a linker: ado-ado)
Sequence (O43464 355-458): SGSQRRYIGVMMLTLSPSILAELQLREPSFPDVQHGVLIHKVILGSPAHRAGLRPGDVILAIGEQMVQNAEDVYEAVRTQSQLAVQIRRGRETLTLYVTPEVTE

pKd	Binder
below the threshold	B1

target: NHERF4_1, Q86UT5-2; assay: holdup assay; parameters: key: below the threshold = too weak to quantify, mostly under pKd 3.1 to 4; details: plain residues with an end cap or a label only (N-terminal biotin on a linker: ado-ado)
Sequence (Q86UT5 other isoform, or with tags, fused parts or gaps): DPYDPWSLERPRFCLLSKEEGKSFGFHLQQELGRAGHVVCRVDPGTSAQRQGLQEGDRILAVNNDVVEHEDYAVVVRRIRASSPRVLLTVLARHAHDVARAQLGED

pKd	Binder
3.56	B1

target: MAST2, Q6P0Q8; assay: holdup assay; parameters: key: below the threshold = too weak to quantify, mostly under pKd 3.1 to 4; details: plain residues with an end cap or a label only (N-terminal biotin on a linker: ado-ado)
Sequence (Q6P0Q8 1099-1202): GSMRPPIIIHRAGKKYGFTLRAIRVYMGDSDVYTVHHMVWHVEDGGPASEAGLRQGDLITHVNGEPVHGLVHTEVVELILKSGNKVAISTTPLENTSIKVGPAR

pKd	Binder
5.68	B1

target: NOS1, P29475; assay: holdup assay; parameters: key: below the threshold = too weak to quantify, mostly under pKd 3.1 to 4; details: plain residues with an end cap or a label only (N-terminal biotin on a linker: ado-ado)
Sequence (P29475 9-101): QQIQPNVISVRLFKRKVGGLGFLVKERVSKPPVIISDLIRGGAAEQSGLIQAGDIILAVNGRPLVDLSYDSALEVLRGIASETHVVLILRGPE

pKd	Binder
below the threshold	B1

Source: paper PMC9482650, “Quantitative fragmentomics allow affinity mapping of interactomes” (Nature Communications, 2022)
